Source: IntAct's records for PubMed 23386062
One block for each substance: values may come before it.

Assays:
nisch_human NISCH [1] = target: nisch_human NISCH (UniProt Q9Y2I1)
nisch_human NISCH [2] = target: nisch_human NISCH (UniProt Q9Y2I1); remark: listed apart in the source
nisch_human NISCH [3] = target: nisch_human NISCH (UniProt Q9Y2I1); remark: listed apart in the source
nisch_human NISCH [4] = target: nisch_human NISCH (UniProt Q9Y2I1); remark: listed apart in the source

Chain of UniProt Q9Y2I1 (Q9Y2I1 whole entry): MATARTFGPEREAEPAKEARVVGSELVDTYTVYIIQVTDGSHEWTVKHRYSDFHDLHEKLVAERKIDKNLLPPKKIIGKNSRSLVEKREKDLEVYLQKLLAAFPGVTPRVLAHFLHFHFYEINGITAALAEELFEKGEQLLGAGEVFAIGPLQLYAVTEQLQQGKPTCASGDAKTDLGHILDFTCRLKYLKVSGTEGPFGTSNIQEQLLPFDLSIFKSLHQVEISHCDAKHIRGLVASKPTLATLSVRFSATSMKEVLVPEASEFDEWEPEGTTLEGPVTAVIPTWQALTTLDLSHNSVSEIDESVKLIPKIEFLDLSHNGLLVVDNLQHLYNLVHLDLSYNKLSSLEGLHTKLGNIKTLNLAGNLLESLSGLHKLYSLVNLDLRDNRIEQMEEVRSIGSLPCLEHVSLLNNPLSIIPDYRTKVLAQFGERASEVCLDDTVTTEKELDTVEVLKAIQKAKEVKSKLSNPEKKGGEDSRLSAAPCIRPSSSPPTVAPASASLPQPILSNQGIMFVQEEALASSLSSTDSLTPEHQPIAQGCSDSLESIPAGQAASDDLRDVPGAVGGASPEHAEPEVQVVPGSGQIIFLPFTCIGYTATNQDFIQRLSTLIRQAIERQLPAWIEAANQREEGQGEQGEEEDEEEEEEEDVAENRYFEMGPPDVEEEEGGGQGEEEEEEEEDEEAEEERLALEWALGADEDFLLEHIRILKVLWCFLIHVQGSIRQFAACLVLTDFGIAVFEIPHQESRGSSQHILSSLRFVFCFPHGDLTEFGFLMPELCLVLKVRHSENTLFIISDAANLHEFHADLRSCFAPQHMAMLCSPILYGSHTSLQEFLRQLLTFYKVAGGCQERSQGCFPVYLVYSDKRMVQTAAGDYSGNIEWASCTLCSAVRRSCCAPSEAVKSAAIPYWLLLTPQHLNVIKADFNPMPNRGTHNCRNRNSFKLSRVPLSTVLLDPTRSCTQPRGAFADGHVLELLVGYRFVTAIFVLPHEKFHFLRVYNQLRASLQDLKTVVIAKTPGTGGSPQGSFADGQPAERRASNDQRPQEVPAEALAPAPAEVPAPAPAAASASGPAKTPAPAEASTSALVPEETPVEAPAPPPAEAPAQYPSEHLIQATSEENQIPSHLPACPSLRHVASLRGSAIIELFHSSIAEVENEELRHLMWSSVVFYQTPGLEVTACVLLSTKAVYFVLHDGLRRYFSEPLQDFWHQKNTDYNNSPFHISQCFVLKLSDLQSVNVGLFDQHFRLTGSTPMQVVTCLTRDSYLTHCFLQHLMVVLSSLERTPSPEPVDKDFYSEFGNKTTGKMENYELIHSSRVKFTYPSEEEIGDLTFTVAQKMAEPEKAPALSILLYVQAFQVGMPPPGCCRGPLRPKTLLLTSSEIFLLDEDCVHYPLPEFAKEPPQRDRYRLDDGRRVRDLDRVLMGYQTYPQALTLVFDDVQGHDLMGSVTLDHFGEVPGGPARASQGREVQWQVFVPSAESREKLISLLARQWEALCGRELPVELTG

- effect of a mutation on the interaction (nisch_human NISCH [1]): increasing interaction
Substance: Ras-related protein Rab-14 (Rattus norvegicus (Rat)) (from UniProt P61107) Q70L

- effect of a mutation on the interaction (nisch_human NISCH [2]): decreasing interaction
Substance: Ras-related protein Rab-14 (Rattus norvegicus (Rat)) (from UniProt P61107) N124I

- effect of a mutation on the interaction (nisch_human NISCH [3]): disrupting interaction
- effect of a mutation on the interaction (nisch_human NISCH [4]): decreasing interaction
Substance: Ras-related protein Rab-14 (Rattus norvegicus (Rat)) (from UniProt P61107) S25N
